Conditions in all cases: both partners purified
The target of assay [1] is T1, Arp2 of S. pombe Arp2/3 complex (S. pombe, UniProt Q9UUJ1 1-390).
T1 construct: Arp2 subunit of S. pombe Arp2/3 complex; Seen within the whole complex in the branch junction
Briefly: cryo-EM structure; ADP state: branch junctions of capped rabbit actin filaments with GCN4-VCA-activated S. pombe Arp2/3 complex, aged ~90 min; ADP on actin and Arp3, ATP on Arp2; 2.7 Å.

For assay [2], the target named is T1, Arp2 of S. pombe Arp2/3 complex. Briefly: cryo-EM structure; ADP-BeFx state: branch junctions prepared as for the ADP state, with 2 mM BeFx (2 mM BeSO4 and 10 mM NaF) added during daughter filament formation; ADP-BeFx on Arp3, ATP on Arp2; 3.2 Å.
Assay [3] addresses T2, ARPC1 of S. pombe Arp2/3 complex (S. pombe, UniProt P78774 1-377).
T2 construct: ARPC1 subunit of S. pombe Arp2/3 complex; Seen within the whole complex in the branch junction
T2 sequence: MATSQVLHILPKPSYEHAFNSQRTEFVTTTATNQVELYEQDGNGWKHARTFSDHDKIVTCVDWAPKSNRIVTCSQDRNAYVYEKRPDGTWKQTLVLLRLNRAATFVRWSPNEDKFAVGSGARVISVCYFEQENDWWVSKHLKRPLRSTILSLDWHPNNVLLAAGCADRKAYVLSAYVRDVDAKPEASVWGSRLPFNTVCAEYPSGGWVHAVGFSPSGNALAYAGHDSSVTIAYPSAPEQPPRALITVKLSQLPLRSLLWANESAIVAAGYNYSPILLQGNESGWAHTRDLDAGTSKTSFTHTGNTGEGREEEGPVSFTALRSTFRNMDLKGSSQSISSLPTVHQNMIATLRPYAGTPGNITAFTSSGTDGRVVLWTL
Described as above.

T1 sequence (Q9UUJ1 whole entry, one chain of several): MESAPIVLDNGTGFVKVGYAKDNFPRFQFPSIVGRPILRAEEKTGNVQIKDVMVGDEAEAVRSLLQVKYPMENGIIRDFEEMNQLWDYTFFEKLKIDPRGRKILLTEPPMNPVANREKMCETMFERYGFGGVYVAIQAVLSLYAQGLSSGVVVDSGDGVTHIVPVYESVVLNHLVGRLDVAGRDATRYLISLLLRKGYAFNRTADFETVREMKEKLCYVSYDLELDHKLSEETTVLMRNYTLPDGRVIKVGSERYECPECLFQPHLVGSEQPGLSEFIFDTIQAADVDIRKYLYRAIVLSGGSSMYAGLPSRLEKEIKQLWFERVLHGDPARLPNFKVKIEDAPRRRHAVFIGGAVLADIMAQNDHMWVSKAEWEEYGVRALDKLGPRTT

B1: ARPC3 of S. pombe Arp2/3 complex (natural protein)
chain: MPAYHSSFLSLTDVPTTGNIAMLPLKTKFRGPAYPADESQMDIIDECIGLFRANCFFRNFEIKGPADRTLIYGTLFISECLGRVNGLNYRDAERQLNSLALENFSIPGSAGFPLNALYAPPLSPQDAEIMRTYLTQFRQELAYRLLSHVYATEKDHPSKWWTCFSKRRFMNKAL
notes: ARPC3 subunit of S. pombe Arp2/3 complex; Seen within the whole complex in the branch junction
On to B1, for which the binding result in assay [1] is listed as “binds”.

B2: ARPC2 of S. pombe Arp2/3 complex (natural protein)
chain: MLSLDYNNIFIYELLTERFSSENPSSIDQVVTDFDGVTFHISTPEEKTKILISLSMKCYPELVNYGTLDLLKQIYGAYVHEPEMGYNFSILIDLQQLPATDEEKEQLAMSISMLKRNVLAAPFHRAFTKQAELADLARKDPENAPMLDKQATSQELMAIHYRDEETIVLWPEHDRVTVVFSTKFREETDRIFGKVFLQEFVDARRRPAIQTAPQVLFSYRDPPLEIRDIQGIQKGDDFGFVTFVLFERHFTPQNREDCISHIQVFRNTLHFHIKASKAYMHQRMRKRVADFQKVLNRAKPDVELERKTATGRSFVRA
notes: ARPC2 subunit of S. pombe Arp2/3 complex; Seen within the whole complex in the branch junction
As for B2, the binding result in assay [2] and in assay [3] was “binds” in each case.

The values above are taken from PMC10918085, “Cryo-EM structures reveal how phosphate release from Arp3 weakens actin filament branches formed by Arp2/3 complex” (Nature Communications, 2024).
